Here are results for 3 molecules from patent US6355473.

What all share (assay): cell-based or functional assay
The target in test [1] is human melanocortin receptor 4 (hMCR4), native form (human) (UniProt P32245).
The target of the next test is αF-hSSTR3 (yeast; human).
Test [2] concerns the target All the receptor forms tested (hNocR, Ste2-hNocR, Inv-hNocR, αF-hNocR) in the stp22 strains.

αF-hSSTR3 (yeast; human), sequence (P01149 other isoform, or with tags, fused parts or gaps): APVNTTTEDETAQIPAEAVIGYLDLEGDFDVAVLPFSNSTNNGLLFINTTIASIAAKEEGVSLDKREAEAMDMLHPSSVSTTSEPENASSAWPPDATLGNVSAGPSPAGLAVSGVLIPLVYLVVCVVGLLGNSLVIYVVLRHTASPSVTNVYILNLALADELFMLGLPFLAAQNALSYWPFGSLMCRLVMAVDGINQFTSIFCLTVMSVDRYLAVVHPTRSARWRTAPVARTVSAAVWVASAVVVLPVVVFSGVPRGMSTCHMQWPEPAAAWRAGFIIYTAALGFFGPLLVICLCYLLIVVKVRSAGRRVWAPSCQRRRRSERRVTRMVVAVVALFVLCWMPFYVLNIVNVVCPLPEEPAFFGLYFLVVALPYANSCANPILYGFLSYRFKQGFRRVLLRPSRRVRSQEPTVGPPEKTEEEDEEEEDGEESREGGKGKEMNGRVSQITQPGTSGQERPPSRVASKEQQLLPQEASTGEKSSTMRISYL
UniProt P32245, sequence (P32245 whole entry): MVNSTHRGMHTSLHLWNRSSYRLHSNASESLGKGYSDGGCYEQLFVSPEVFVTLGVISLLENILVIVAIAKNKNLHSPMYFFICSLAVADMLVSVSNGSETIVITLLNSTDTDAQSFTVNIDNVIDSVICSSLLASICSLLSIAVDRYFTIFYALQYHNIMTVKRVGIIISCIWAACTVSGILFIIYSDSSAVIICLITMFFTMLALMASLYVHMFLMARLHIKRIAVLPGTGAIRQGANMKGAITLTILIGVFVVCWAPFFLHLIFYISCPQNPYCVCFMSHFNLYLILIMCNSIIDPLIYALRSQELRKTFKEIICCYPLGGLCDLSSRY

NDP-α-MSH (peptide) showed a Specific ligand-induced levels of β-galactosidase activity (FUS1-lacZ), stp22 strain compared with wild type in test [1] of 2 fold.

B1: Somatostatin-14 (peptide, UniProt P61278 103-116, looked up)
peptide: AGCKNFFWKTFTSC
For B1, in the test with αF-hSSTR3 (yeast; human), the decrease of EC50 of FUS1-lacZ induction, stp22 strain compared with wild type was determined as 50% and the levels of FUS1-lacZ induction (β-galactosidase activity), stp22 strain compared with wild type stood at 2 fold.

B2: nociceptin (peptide, UniProt Q13519 130-146, looked up)
peptide: FGGFTGARKSARKLANQ
In test [2], B2 came in with a maximal increase in the levels of β-galactosidase activity (FUS1-lacZ induction), stp22 strains of 10 to 40 fold.
